Data: PMC8750077

Key:
[1] = target: HPV18-E6 (4C-4S) version of E6 fused with His-tag (human papillomavirus type 18 (HPV18)) (UniProt P06463)
[2] = target: HPV18-E6 (4C-4S) version of E6 fused with His-tag (human papillomavirus type 18 (HPV18)) (UniProt P06463); remark: listed apart in the source

Sequence of UniProt P06463 (P06463 whole entry, the tested form may be a part): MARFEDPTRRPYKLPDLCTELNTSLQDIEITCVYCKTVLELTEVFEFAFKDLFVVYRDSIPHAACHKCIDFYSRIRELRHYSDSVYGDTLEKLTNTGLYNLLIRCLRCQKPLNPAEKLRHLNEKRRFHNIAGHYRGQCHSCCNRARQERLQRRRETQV

Substance “untagged USP46 (from UniProt P62068 1-366) (enzyme)” has a deubiquitinase activity of recombinant USP46 (singly purified His-USP46, 70 nM) on the ubiquitin substrate after simple mixing with recombinant HPV-E6 (4 uM); USP46 alone 0.39 FU/min [1] of 0.58 FU/min and a deubiquitinase activity on Ub-AMC of the E6:USP46 complex purified on Ni-NTA and concentrated (USP46-UAF1 complex in the same assay: 0.83 FU/min) [2] of 0.78 FU/min.
